Laboratory results: paper PMC4765788, “Role of a chalcone isomerase-like protein in flavonoid biosynthesis in Arabidopsis thaliana” (Journal of Experimental Botany, 2015)

Molecular target: the molecule itself
Assay: native gel or EMSA; purified recombinant protein run on a non-denaturing PAGE gel

B1: recombinant TT5 protein (chalcone isomerase), His-tagged (enzyme, Arabidopsis thaliana, UniProt P41088 1-246, looked up)
chain: MSSSNACASPSPFPAVTKLHVDSVTFVPSVKSPASSNPLFLGGAGVRGLDIQGKFVIFTVIGVYLEGNAVPSLSVKWKGKTTEELTESIPFFREIVTGAFEKFIKVTMKLPLTGQQYSEKVTENCVAIWKQLGLYTDCEAKAVEKFLEIFKEETFPPGSSILFALSPTGSLTVAFSKDDSIPETGIAVIENKLLAEAVLESIIGKNGVSPGTRLSVAERLSQLMMKNKDEKEVSDHSVEEKLAKEN
notes: TT5, chalcone isomerase, Arabidopsis thaliana, At3g55120; ORF cloned into pQE-30; pQE-30 usually adds an N-terminal His6 tag (surmised); also called CHI
B1 was tested, and the “stoichiometry N” value was 4.
